B1: Myeloid differentiation primary response protein MyD88 (Mus musculus), P22366 (parent)
chain: MSAGDPRVGSGSLDSFMFSIPLVALNVGVRRRLSLFLNPRTPVAADWTLLAEEMGFEYLEIRELETRPDPTRSLLDAWQGRSGASVGRLLELLALLDREDILKELKSRIEEDCQKYLGKQQNQESEKPLQVARVESSVPQTKELGGITTLDDPLGQTPELFDAFICYCPNDIEFVQEMIRQLEQTDYRLKLCVSDRDVLPGTCVWSIASELIEKRCRRMVVVVSDDYLQSKECDFQTKFALSLSPGVQQKRLIPIKYKAMKKDFPSILRFITICDYTNPCTKSWFWTRLAKALSLP
B2: TIR domain-containing adapter molecule 1 (Mus musculus), Q80UF7 (parent)
chain: MDNPGPSLRGAFGILGALERDRLTHLKHKLGSLCSGSQESKLLHAMVLLALGQDTEARVSLESLKMNTVAQLVAHQWADMETTEGPEEPPDLSWTVARLYHLLAEENLCPASTRDMAYQVALRDFASQGDHQLGQLQNEAWDRCSSDIKGDPSGFQPLHSHQGSLQPPSASPAVTRSQPRPIDTPDWSWGHTLHSTNSTASLASHLEISQSPTLAFLSSHHGTHGPSKLCNTPLDTQEPQLVPEGCQEPEEISWPPSVETSVSLGLPHEISVPEVSPEEASPILPDALAAPDTSVHCPIECTELSTNSRSPLTSTTESVGKQWPITSQRSPQVPVGDDSLQNTTSSSPPAQPPSLQASPKLPPSPLSSASSPSSYPAPPTSTSPVLDHSETSDQKFYNFVVIHARADEQVALRIREKLETLGVPDGATFCEEFQVPGRGELHCLQDAIDHSGFTILLLTASFDCSLSLHQINHALMNSLTQSGRQDCVIPLLPLECSQAQLSPDTTRLLHSIVWLDEHSPIFARKVANTFKTQKLQAQRVRWKKAQEARTLKEQSIQLEAERQNVAAISAAYTAYVHSYRAWQAEMNKLGVAFGKNLSLGTPTPSWPGCPQPIPSHPQGGTPVFPYSPQPPSFPQPPCFPQPPSFPQPPSFPLPPVSSPQSQSFPSASSPAPQTPGPQPLIIHHAQMVQLGVNNHMWGHTGAQSSDDKTECSENPCMGPLTDQGEPLLETPE

Variants of: B1
Settings: with cblb_mouse Cblb
Target sequence in this assay (Q3TTA7 whole entry): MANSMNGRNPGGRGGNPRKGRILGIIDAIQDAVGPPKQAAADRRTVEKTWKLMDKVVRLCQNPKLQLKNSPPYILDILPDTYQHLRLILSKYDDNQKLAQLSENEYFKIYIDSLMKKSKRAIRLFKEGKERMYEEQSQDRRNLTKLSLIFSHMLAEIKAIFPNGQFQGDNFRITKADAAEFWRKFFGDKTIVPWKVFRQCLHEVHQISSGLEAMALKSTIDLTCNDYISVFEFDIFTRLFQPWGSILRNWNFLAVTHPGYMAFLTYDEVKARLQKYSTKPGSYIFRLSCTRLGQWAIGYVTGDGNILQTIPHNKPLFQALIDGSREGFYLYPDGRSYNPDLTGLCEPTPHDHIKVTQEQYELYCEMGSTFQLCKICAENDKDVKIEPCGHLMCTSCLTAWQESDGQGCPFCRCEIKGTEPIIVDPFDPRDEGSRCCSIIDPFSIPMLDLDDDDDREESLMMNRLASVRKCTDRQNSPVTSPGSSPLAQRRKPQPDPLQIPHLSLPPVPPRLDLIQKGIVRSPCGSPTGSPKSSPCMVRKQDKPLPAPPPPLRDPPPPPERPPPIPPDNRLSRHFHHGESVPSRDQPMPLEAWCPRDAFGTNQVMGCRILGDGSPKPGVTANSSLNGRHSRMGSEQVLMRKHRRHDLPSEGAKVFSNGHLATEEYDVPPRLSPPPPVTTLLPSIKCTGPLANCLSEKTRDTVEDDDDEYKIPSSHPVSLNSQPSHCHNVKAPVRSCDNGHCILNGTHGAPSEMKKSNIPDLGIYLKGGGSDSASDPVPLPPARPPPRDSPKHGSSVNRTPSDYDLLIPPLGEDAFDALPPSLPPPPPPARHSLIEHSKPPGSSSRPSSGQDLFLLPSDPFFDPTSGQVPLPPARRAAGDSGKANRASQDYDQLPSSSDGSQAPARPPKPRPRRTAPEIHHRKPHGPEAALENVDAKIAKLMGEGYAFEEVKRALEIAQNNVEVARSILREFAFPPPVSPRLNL

Row | Variant | effect of a mutation on the interaction
1 | Y227F | decreasing interaction

Variants of: B2
Settings: with cblb_mouse Cblb
Target sequence in this assay (Q3TTA7 whole entry): as above

Row | Variant | effect of a mutation on the interaction
2 | Y375F | decreasing interaction
